Measurements taken from paper PMC5858142, “A novel cold-adapted esterase from Enterobacter cloacae: Characterization and improvement of its activity and thermostability via the site of Tyr193Cys” (Microbial Cell Factories, 2018).

Assays:
Lip = conditions: optimal pH 9.0, 40 °C; substrate not named, taken as pNPA (best substrate)
[1] = tested on: CC(=O)Oc1ccc([N+](=O)[O-])cc1; experiment: purified protein; conditions: optimal pH 8.5, 40 °C, substrate not named, taken as pNPA (best substrate)

Molecule: CC(=O)Oc1ccc([N+](=O)[O-])cc1 [C2, p-nitrophenyl acetate]
- Km (Lip): 363 ± 30 µM

Molecule: Lip (Enterobacter cloacae)
- Km [1]: 643 ± 30 µM
- kcat [1]: 9.8 ± 0.09 s⁻¹
- kcat/Km [1]: 15200 ± 210 M⁻¹ s⁻¹
